These results are taken from patent US20110166062A1 (INDIANA UNIVERSITY RESEARCH AND TECHNOLOGY, published 2011).

Bridges are numbered along the chain shown (N, C = ends). Where no end group is shown, it is not given here.

Holding throughout (test): cell-based or functional assay
In experiment [1] the target is GLP-1 receptor (UniProt P43220 24-463, limits assumed).
In experiment [2] the target is glucagon receptor (UniProt P47871 26-477, limits assumed).
For experiment [3], the target named is T1, GIP receptor (UniProt P48546 22-466).
T1 sequence (looked up): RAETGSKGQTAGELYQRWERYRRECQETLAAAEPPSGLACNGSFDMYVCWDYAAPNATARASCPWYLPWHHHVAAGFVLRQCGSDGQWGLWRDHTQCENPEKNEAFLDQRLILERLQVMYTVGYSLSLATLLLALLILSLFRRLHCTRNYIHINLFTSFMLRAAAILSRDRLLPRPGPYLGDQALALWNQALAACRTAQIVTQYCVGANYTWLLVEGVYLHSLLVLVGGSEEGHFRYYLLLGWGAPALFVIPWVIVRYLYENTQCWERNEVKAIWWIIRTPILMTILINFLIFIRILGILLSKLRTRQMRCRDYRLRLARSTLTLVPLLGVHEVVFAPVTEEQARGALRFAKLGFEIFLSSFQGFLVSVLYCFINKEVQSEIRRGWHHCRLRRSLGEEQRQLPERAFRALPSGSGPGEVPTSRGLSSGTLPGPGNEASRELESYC

Chain of glucagon receptor (P47871 26-477 limits assumed): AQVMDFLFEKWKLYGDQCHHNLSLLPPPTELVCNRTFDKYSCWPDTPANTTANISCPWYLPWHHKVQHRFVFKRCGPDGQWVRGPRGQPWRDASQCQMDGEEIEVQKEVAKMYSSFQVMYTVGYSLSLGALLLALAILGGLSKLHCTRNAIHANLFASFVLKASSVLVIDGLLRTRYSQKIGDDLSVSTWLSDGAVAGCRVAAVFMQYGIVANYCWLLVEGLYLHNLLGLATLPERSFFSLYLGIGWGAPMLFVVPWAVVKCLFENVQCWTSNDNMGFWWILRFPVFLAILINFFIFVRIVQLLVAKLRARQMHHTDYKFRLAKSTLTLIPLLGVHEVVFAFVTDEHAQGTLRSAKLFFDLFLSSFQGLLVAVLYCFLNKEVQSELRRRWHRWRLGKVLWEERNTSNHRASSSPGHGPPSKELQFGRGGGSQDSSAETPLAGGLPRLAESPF

B1: mt-149 (peptide)
peptide: YAEGTFTSDYSIYLDEQAAKEFVNWLLAGGPSSGAPPPS-NH2
modifications: lactam 16-20; N-terminus assumed
SMILES: CC[C@H](C)[C@H](NC(=O)[C@H](CO)NC(=O)[C@H](Cc1ccc(O)cc1)NC(=O)[C@H](CC(=O)O)NC(=O)[C@H](CO)NC(=O)[C@@H](NC(=O)[C@H](Cc1ccccc1)NC(=O)[C@@H](NC(=O)CNC(=O)[C@H](CCC(=O)O)NC(=O)[C@H](C)NC(=O)[C@@H](N)Cc1ccc(O)cc1)[C@@H](C)O)[C@@H](C)O)C(=O)N[C@@H](Cc1ccc(O)cc1)C(=O)N[C@@H](CC(C)C)C(=O)N[C@@H](CC(=O)O)C(=O)N[C@H]1CCC(=O)NCCCC[C@@H](C(=O)N[C@@H](CCC(=O)O)C(=O)N[C@@H](Cc2ccccc2)C(=O)N[C@H](C(=O)N[C@@H](CC(N)=O)C(=O)N[C@@H](Cc2c[nH]c3ccccc23)C(=O)N[C@@H](CC(C)C)C(=O)N[C@@H](CC(C)C)C(=O)N[C@@H](C)C(=O)NCC(=O)NCC(=O)N2CCC[C@H]2C(=O)N[C@@H](CO)C(=O)N[C@@H](CO)C(=O)NCC(=O)N[C@@H](C)C(=O)N2CCC[C@H]2C(=O)N2CCC[C@H]2C(=O)N2CCC[C@H]2C(=O)N[C@@H](CO)C(N)=O)C(C)C)NC(=O)[C@H](C)NC(=O)[C@H](C)NC(=O)[C@H](CCC(N)=O)NC1=O
As to B1, the concentration for a half-maximal effect (EC50) in experiment [1] amounted to 36 pM; in experiment [2], 16300 pM; in experiment [3] it was 68 pM. The relative activity in experiment [1] was determined as 97.5%; in experiment [2], 0.64%; in experiment [3], 91.2%.

B2: mt-144 (peptide)
peptide: YAQGTFTSDYSIYMDEQAAKEFVNWLLAGGPSSGAPPPS-NH2
modifications: lactam 16-20; N-terminus assumed
SMILES: CC[C@H](C)[C@H](NC(=O)[C@H](CO)NC(=O)[C@H](Cc1ccc(O)cc1)NC(=O)[C@H](CC(=O)O)NC(=O)[C@H](CO)NC(=O)[C@@H](NC(=O)[C@H](Cc1ccccc1)NC(=O)[C@@H](NC(=O)CNC(=O)[C@H](CCC(N)=O)NC(=O)[C@H](C)NC(=O)[C@@H](N)Cc1ccc(O)cc1)[C@@H](C)O)[C@@H](C)O)C(=O)N[C@@H](Cc1ccc(O)cc1)C(=O)N[C@@H](CCSC)C(=O)N[C@@H](CC(=O)O)C(=O)N[C@H]1CCC(=O)NCCCC[C@@H](C(=O)N[C@@H](CCC(=O)O)C(=O)N[C@@H](Cc2ccccc2)C(=O)N[C@H](C(=O)N[C@@H](CC(N)=O)C(=O)N[C@@H](Cc2c[nH]c3ccccc23)C(=O)N[C@@H](CC(C)C)C(=O)N[C@@H](CC(C)C)C(=O)N[C@@H](C)C(=O)NCC(=O)NCC(=O)N2CCC[C@H]2C(=O)N[C@@H](CO)C(=O)N[C@@H](CO)C(=O)NCC(=O)N[C@@H](C)C(=O)N2CCC[C@H]2C(=O)N2CCC[C@H]2C(=O)N2CCC[C@H]2C(=O)N[C@@H](CO)C(N)=O)C(C)C)NC(=O)[C@H](C)NC(=O)[C@H](C)NC(=O)[C@H](CCC(N)=O)NC1=O
As to B2, the “EC50” value in experiment [1] came to 36 pM; in experiment [2] it was 2270 pM; in experiment [3], 480 pM. Further, the relative activity turned out to be 142% in experiment [1], 16.8% in experiment [2] and 18.5% in experiment [3].

B3: mt-147 (peptide)
peptide: YSQGTFTSDYSIYLDEQAAKEFIAWLLAGGPSSGAPPPS-NH2
modifications: lactam 16-20; N-terminus assumed
SMILES: CC[C@H](C)[C@H](NC(=O)[C@H](Cc1ccccc1)NC(=O)[C@H](CCC(=O)O)NC(=O)[C@@H]1CCCCNC(=O)CC[C@H](NC(=O)[C@H](CC(=O)O)NC(=O)[C@H](CC(C)C)NC(=O)[C@H](Cc2ccc(O)cc2)NC(=O)[C@@H](NC(=O)[C@H](CO)NC(=O)[C@H](Cc2ccc(O)cc2)NC(=O)[C@H](CC(=O)O)NC(=O)[C@H](CO)NC(=O)[C@@H](NC(=O)[C@H](Cc2ccccc2)NC(=O)[C@@H](NC(=O)CNC(=O)[C@H](CCC(N)=O)NC(=O)[C@H](CO)NC(=O)[C@@H](N)Cc2ccc(O)cc2)[C@@H](C)O)[C@@H](C)O)[C@@H](C)CC)C(=O)N[C@@H](CCC(N)=O)C(=O)N[C@@H](C)C(=O)N[C@@H](C)C(=O)N1)C(=O)N[C@@H](C)C(=O)N[C@@H](Cc1c[nH]c2ccccc12)C(=O)N[C@@H](CC(C)C)C(=O)N[C@@H](CC(C)C)C(=O)N[C@@H](C)C(=O)NCC(=O)NCC(=O)N1CCC[C@H]1C(=O)N[C@@H](CO)C(=O)N[C@@H](CO)C(=O)NCC(=O)N[C@@H](C)C(=O)N1CCC[C@H]1C(=O)N1CCC[C@H]1C(=O)N1CCC[C@H]1C(=O)N[C@@H](CO)C(N)=O
As to B3, the “EC50” value worked out at 105 pM in experiment [1], 116 pM in experiment [2] and 144 pM in experiment [3]. Moreover, the relative activity was 33.9% in experiment [1], 90.5% in experiment [2] and 43.1% in experiment [3].

B4: mt-150 (peptide)
peptide: YSQGTFISDYSIYLDEQAAKEFVNWLLAGGPSSGAPPPS-NH2
modifications: lactam 16-20; N-terminus assumed
SMILES: CC[C@H](C)[C@H](NC(=O)[C@H](CO)NC(=O)[C@H](Cc1ccc(O)cc1)NC(=O)[C@H](CC(=O)O)NC(=O)[C@H](CO)NC(=O)[C@@H](NC(=O)[C@H](Cc1ccccc1)NC(=O)[C@@H](NC(=O)CNC(=O)[C@H](CCC(N)=O)NC(=O)[C@H](CO)NC(=O)[C@@H](N)Cc1ccc(O)cc1)[C@@H](C)O)[C@@H](C)CC)C(=O)N[C@@H](Cc1ccc(O)cc1)C(=O)N[C@@H](CC(C)C)C(=O)N[C@@H](CC(=O)O)C(=O)N[C@H]1CCC(=O)NCCCC[C@@H](C(=O)N[C@@H](CCC(=O)O)C(=O)N[C@@H](Cc2ccccc2)C(=O)N[C@H](C(=O)N[C@@H](CC(N)=O)C(=O)N[C@@H](Cc2c[nH]c3ccccc23)C(=O)N[C@@H](CC(C)C)C(=O)N[C@@H](CC(C)C)C(=O)N[C@@H](C)C(=O)NCC(=O)NCC(=O)N2CCC[C@H]2C(=O)N[C@@H](CO)C(=O)N[C@@H](CO)C(=O)NCC(=O)N[C@@H](C)C(=O)N2CCC[C@H]2C(=O)N2CCC[C@H]2C(=O)N2CCC[C@H]2C(=O)N[C@@H](CO)C(N)=O)C(C)C)NC(=O)[C@H](C)NC(=O)[C@H](C)NC(=O)[C@H](CCC(N)=O)NC1=O
Consider B4, for which the entries for the “EC50” value in experiment [1], in experiment [2] and in experiment [3] were 3470 pM, 36 pM and 232 pM, respectively. Moreover, the relative activity in experiment [1] was 1.09%; in experiment [2] it was 317%; in experiment [3] it was 26.7%.

B5: mt-148 (peptide)
peptide: YSEGTFTSDYSIYLDEQAAKEFIAWLLAGGPSSGAPPPS-NH2
modifications: lactam 16-20; N-terminus assumed
SMILES: CC[C@H](C)[C@H](NC(=O)[C@H](Cc1ccccc1)NC(=O)[C@H](CCC(=O)O)NC(=O)[C@@H]1CCCCNC(=O)CC[C@H](NC(=O)[C@H](CC(=O)O)NC(=O)[C@H](CC(C)C)NC(=O)[C@H](Cc2ccc(O)cc2)NC(=O)[C@@H](NC(=O)[C@H](CO)NC(=O)[C@H](Cc2ccc(O)cc2)NC(=O)[C@H](CC(=O)O)NC(=O)[C@H](CO)NC(=O)[C@@H](NC(=O)[C@H](Cc2ccccc2)NC(=O)[C@@H](NC(=O)CNC(=O)[C@H](CCC(=O)O)NC(=O)[C@H](CO)NC(=O)[C@@H](N)Cc2ccc(O)cc2)[C@@H](C)O)[C@@H](C)O)[C@@H](C)CC)C(=O)N[C@@H](CCC(N)=O)C(=O)N[C@@H](C)C(=O)N[C@@H](C)C(=O)N1)C(=O)N[C@@H](C)C(=O)N[C@@H](Cc1c[nH]c2ccccc12)C(=O)N[C@@H](CC(C)C)C(=O)N[C@@H](CC(C)C)C(=O)N[C@@H](C)C(=O)NCC(=O)NCC(=O)N1CCC[C@H]1C(=O)N[C@@H](CO)C(=O)N[C@@H](CO)C(=O)NCC(=O)N[C@@H](C)C(=O)N1CCC[C@H]1C(=O)N1CCC[C@H]1C(=O)N1CCC[C@H]1C(=O)N[C@@H](CO)C(N)=O
On to B5, for which the entries for the “EC50” value in experiment [1], in experiment [2] and in experiment [3] were 98 pM, 4910 pM and 95 pM, respectively. Further, the values for the relative activity in experiment [1], in experiment [2] and in experiment [3] were 36.2%, 2.14% and 65.3%, respectively.

B6: mt-143 (peptide)
peptide: YSQGTFTSDYSKYLDERRAKEFVNWLLAGGPSSGAPPPS-NH2
modifications: lactam 16-20; N-terminus assumed
SMILES: CC(C)C[C@H](NC(=O)[C@H](CC(C)C)NC(=O)[C@H](Cc1c[nH]c2ccccc12)NC(=O)[C@H](CC(N)=O)NC(=O)[C@@H](NC(=O)[C@H](Cc1ccccc1)NC(=O)[C@H](CCC(=O)O)NC(=O)[C@@H]1CCCCNC(=O)CC[C@H](NC(=O)[C@H](CC(=O)O)NC(=O)[C@H](CC(C)C)NC(=O)[C@H](Cc2ccc(O)cc2)NC(=O)[C@H](CCCCN)NC(=O)[C@H](CO)NC(=O)[C@H](Cc2ccc(O)cc2)NC(=O)[C@H](CC(=O)O)NC(=O)[C@H](CO)NC(=O)[C@@H](NC(=O)[C@H](Cc2ccccc2)NC(=O)[C@@H](NC(=O)CNC(=O)[C@H](CCC(N)=O)NC(=O)[C@H](CO)NC(=O)[C@@H](N)Cc2ccc(O)cc2)[C@@H](C)O)[C@@H](C)O)C(=O)N[C@@H](CCCNC(=N)N)C(=O)N[C@@H](CCCNC(=N)N)C(=O)N[C@@H](C)C(=O)N1)C(C)C)C(=O)N[C@@H](C)C(=O)NCC(=O)NCC(=O)N1CCC[C@H]1C(=O)N[C@@H](CO)C(=O)N[C@@H](CO)C(=O)NCC(=O)N[C@@H](C)C(=O)N1CCC[C@H]1C(=O)N1CCC[C@H]1C(=O)N1CCC[C@H]1C(=O)N[C@@H](CO)C(N)=O
For the molecule B6, the “EC50” value in experiment [1] came to 1480 pM; in experiment [2], 86 pM; in experiment [3], 2640 pM. In addition, the results for the relative activity in experiment [1], in experiment [2] and in experiment [3] were 4.53%, 497% and 1.82%, respectively.

Usually EC50 stands for the concentration at which the effect is half-maximal. Lower therefore signals a more potent agent.
